Test results from patent US5041542A, “Substituted pyrimido[5,4-d]pyrimidine nucleosides” (Nucleic Acid Research Institute, priority 1988, dated 1991).

Substrate: Nc1ncnc2c1ncn2[C@@H]1O[C@H](CO)[C@@H](O)[C@H]1O
Assay: Adenosine kinase inhibition (filter binding assay)
Format: biochemical, human
Settings: other: adenosine as substrate; 37.0 °C

B1: WI-L2 adenosine kinase (Homo sapiens) (protein)
chain: MAAAEEEPKPKKLKVEAPQALRENILFGMGNPLLDISAVVDKDFLDKYSLKPNDQILAEDKHKELFDELVKKFKVEYHAGGSTQNSIKVAQWMIQQPHKAATFFGCIGIDKFGEILKRKAAEAHVDAHYYEQNEQPTGTCAACITGDNRSLIANLAAANCYKKEKHLDLEKNWMLVEKARVCYIAGFFLTVSPESVLKVAHHASENNRIFTLNLSAPFISQFYKESLMKVMPYVDILFGNETEAATFAREQGFETKDIKEIAKKTQALPKMNSKRQRIVIFTQGRDDTIMATESEVTAFAVLDQDQKEIIDTNGAGDAFVGGFLSQLVSDKPLTECIRAGHYAASIIIRRTGCTFPEKPDFH
notes: added to the cell-free WI-L2 lysate to give 5 μM final assay concentration; endogenous in cells; host or cells: WI-L2 B lymphoblast cells (cell-free lysate)
- Km: 0.9 µM
